In IntAct's records for PubMed 23454188:

B1: GTPase IMAP family member 7 (Homo sapiens), Q8NHV1 (parent)
chain: MAESEDRSLRIVLVGKTGSGKSATANTILGEEIFDSRIAAQAVTKNCQKASREWQGRDLLVVDTPGLFDTKESLDTTCKEISRCIISSCPGPHAIVLVLLLGRYTEEEQKTVALIKAVFGKSAMKHMVILFTRKEELEGQSFHDFIADADVGLKSIVKECGNRCCAFSNSKKTSKAEKESQVQELVELIEKMVQCNEGAYFSDDIYKDTEERLKQREEVLRKIYTDQLNEEIKLVEEDKHKSEEEKEKEIKLLKLKYDEKIKNIREEAERNIFKDVFNRIWKMLSEIWHRFLSKCKFYSS

Variants of: B1
Conditions: with gima2_human GIMAP2, Q9UG22
Sequence of gima2_human GIMAP2, Q9UG22 (Q9UG22 whole entry): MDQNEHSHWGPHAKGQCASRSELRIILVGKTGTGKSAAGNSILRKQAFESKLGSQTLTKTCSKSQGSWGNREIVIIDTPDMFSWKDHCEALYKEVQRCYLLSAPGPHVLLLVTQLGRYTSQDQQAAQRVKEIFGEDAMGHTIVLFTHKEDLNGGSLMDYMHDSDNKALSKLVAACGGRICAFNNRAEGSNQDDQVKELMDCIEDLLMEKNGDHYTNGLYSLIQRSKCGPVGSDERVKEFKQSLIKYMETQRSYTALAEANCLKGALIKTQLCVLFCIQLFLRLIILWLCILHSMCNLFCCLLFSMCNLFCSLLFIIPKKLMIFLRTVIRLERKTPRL

| effect of a mutation on the interaction | Variant |
| --- | --- |
| disrupting interaction strength | MAESEDRSLRIVLVGKTGSGKSATANTILGEEIFDSRIAAQAVTKNCQKASREWQGRDLLVVDTPGLFDTKESLDTTCKEISRCIISSCPGPHAIVLVLLLGDYTEEEQKTVALIKAVFGKSAMKHMVILFTRKEELEGQSFHDFIADADVGLKSIVKECGNRCCAFSNSKKTSKAEKESQVQELVELIEKMVQCNEGAYFSDDIYKDTEERLKQREEVLRKIYTDQLNEEIKLVEEDKHKSEEEKEKEIKLLKLKYDEKIKNIREEAERNIFKDVFNRIWKMLSEIWHRFLSKCKFYSS [R103D] |
| decreasing interaction strength | MAESEDRSLRIVLVGKTGSGKSATANTILGEEIFDSRIAAQAVTKNCQKASREWQGRDLLVVDTPGLFDTKESLDTTCKEISRCIISSCPGPHAIVLVLLLGRYTEEEQKTVALIKAVFGKSAMKHMVILFTRKEWLEGQSFHDFIADADVGLKSIVKECGNRCCAFSNSKKTSKAEKESQVQELVELIEKMVQCNEGAYFSDDIYKDTEERLKQREEVLRKIYTDQLNEEIKLVEEDKHKSEEEKEKEIKLLKLKYDEKIKNIREEAERNIFKDVFNRIWKMLSEIWHRFLSKCKFYSS [E136W] |
